Measurements taken from patent US20220089695A1.

What was measured:
[1] = molecular target: C-type lectin domain family 10 member A expressed on cells (human) (UniProt Q8IUN9)
[2] = molecular target: Asialoglycoprotein Receptor 1 expressed on cells (human) (UniProt P07306)
[3] = molecular target: Tweety Family Member 2 expressed on cells (human) (UniProt Q9BSA4)
[4] = molecular target: SARS-CoV-2 Spike (S) protein, recombinant, construct not stated at the place (SARS-CoV-2) (UniProt P0DTC2)
[5] = molecular target: Liver/lymph node-specific intercellular adhesion molecule-3-grabbing integrin expressed on cells (human) (UniProt Q9H2X3)
[6] = molecular target: Liver and lymph node sinusoidal endothelial cell C-type lectin expressed on cells (human) (UniProt Q6UXB4)
[7] = molecular target: Dendritic cell-specific intercellular adhesion molecule-3-grabbing nonintegrin expressed on cells (human) (UniProt Q9NNX6)
Sequence of Dendritic cell-specific intercellular adhesion molecule-3-grabbing nonintegrin expressed on cells (human) (Q9NNX6 whole entry): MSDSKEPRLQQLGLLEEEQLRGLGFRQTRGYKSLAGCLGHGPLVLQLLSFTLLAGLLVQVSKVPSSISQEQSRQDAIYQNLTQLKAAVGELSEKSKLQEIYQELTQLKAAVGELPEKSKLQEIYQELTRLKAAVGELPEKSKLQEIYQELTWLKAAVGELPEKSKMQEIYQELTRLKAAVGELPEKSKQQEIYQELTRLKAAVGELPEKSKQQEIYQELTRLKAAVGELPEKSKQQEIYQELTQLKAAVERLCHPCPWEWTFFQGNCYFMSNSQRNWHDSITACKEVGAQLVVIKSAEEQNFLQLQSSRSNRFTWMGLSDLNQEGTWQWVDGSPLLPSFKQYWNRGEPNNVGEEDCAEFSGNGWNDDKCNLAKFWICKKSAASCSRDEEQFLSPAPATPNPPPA

Sequence of Liver and lymph node sinusoidal endothelial cell C-type lectin expressed on cells (human) (Q6UXB4 whole entry): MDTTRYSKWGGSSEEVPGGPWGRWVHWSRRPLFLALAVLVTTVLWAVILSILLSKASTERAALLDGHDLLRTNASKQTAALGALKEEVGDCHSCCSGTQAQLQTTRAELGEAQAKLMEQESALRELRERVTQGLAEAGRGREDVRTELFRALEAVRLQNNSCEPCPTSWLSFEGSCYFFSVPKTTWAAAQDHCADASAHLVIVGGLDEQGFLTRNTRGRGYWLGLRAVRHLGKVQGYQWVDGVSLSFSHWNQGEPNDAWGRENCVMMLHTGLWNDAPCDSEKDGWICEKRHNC
Sequence of Liver/lymph node-specific intercellular adhesion molecule-3-grabbing integrin expressed on cells (human) (Q9H2X3 whole entry): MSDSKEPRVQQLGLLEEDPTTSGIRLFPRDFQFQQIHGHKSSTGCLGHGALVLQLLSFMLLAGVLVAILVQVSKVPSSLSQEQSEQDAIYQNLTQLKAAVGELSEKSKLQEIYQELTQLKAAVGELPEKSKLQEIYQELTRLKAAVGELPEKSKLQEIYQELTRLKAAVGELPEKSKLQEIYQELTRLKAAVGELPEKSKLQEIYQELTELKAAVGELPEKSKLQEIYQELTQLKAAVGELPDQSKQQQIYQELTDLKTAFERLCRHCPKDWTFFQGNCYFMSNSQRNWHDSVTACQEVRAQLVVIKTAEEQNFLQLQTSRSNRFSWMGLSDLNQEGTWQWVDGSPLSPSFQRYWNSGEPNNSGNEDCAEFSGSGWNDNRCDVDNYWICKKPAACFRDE
Sequence of C-type lectin domain family 10 member A expressed on cells (human) (Q8IUN9 whole entry, the tested form may be a part): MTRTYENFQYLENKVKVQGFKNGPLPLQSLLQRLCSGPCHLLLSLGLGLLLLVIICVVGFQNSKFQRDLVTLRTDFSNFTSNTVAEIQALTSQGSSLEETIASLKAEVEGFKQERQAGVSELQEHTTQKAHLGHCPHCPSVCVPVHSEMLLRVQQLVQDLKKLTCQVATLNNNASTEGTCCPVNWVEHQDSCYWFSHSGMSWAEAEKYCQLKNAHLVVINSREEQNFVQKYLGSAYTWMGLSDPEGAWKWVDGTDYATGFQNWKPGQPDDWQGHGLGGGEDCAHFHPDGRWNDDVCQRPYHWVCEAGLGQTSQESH
Sequence of Tweety Family Member 2 expressed on cells (human) (Q9BSA4 whole entry): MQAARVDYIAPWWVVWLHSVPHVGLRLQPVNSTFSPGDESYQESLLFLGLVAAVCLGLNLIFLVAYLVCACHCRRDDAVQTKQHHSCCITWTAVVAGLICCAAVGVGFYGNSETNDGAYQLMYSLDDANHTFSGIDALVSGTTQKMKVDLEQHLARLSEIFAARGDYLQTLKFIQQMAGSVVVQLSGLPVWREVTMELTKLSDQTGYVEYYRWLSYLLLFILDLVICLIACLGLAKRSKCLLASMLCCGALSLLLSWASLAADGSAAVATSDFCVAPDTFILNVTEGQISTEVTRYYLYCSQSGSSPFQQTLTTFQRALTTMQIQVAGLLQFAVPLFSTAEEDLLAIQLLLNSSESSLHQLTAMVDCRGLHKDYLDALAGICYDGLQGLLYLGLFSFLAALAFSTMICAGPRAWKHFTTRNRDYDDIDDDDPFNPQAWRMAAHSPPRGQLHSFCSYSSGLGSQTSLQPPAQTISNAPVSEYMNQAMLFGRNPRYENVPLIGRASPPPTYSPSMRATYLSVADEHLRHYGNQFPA
Sequence of Asialoglycoprotein Receptor 1 expressed on cells (human) (P07306 whole entry): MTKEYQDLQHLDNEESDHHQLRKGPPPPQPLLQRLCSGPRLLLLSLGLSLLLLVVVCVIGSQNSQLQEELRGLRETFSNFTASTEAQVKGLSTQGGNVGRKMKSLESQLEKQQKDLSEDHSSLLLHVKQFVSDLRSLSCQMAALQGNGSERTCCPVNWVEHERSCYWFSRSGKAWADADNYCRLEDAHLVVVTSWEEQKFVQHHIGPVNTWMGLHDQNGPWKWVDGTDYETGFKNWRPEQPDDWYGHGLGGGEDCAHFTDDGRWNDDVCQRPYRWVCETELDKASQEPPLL

## SARS-CoV-2 S protein displayed on lentiviral (HIV-GFP) pseudovirus (from UniProt P0DTC2 14-1273)
[1]
  cells in the Anti-SARS-CoV-2 S protein (APC) gate: 3.2%
[2]
  cells in the Anti-SARS-CoV-2 S protein (APC) gate: 47.6%
[3]
  cells in the Anti-SARS-CoV-2 S protein (APC) gate: 1.61%

## ACE2-Fc + L-SIGN-Fc + ASGR1-Fc
[4]
  blocking of S protein binding (heat-map cell): 33.7%

## SARS-CoV-2 S protein displayed on lentiviral (HIV-GFP) pseudovirus (from UniProt P0DTC2 14-1273) (other; other documents disagree on this pair)
[5]
  cells in the Anti-SARS-CoV-2 S protein (APC) gate: 31.7%
[6]
  cells in the Anti-SARS-CoV-2 S protein (APC) gate: 1.7%
[7]
  cells in the Anti-SARS-CoV-2 S protein (APC) gate: 20.8%

## Fc Control
[4]
  blocking of S protein binding (heat-map cell): 0%
